# From paper PMC3141330 (Biochemistry, 2010)
# Ends that are not written are not given here.
# B1: GST-CHIP fusion (pGST-hCHIP (1-303)) (enzyme, human, UniProt Q9UNE7 1-303, looked up)
# chain: MKGKEEKEGGARLGAGGGSPEKSPSAQELKEQGNRLFVGRKYPEAAACYGRAITRNPLVAVYYTNRALCYLKMQQHEQALADCRRALELDGQSVKAHFFLGQCQLEMESYDEAIANLQRAYSLAKEQRLNFGDDIPSALRIAKKKRWNSIEERRIHQESELHSYLSRLIAAERERELEECQRNHEGDEDDSHVRAQQACIEAKHDKYMADMDELFSQVDEKRKKRDIPDYLCGKISFELMREPCITPSGITYDRKDIEEHLQRVGHFDPVTRSPLTQEQLIPNLAMKEVIDAFISENGWVEDY
# B2: Carboxyl terminus of Hsc70-interacting protein (CHIP), full-length human, His6-tagged (enzyme, UniProt Q9UNE7 1-303, looked up)
# chain: MKGKEEKEGGARLGAGGGSPEKSPSAQELKEQGNRLFVGRKYPEAAACYGRAITRNPLVAVYYTNRALCYLKMQQHEQALADCRRALELDGQSVKAHFFLGQCQLEMESYDEAIANLQRAYSLAKEQRLNFGDDIPSALRIAKKKRWNSIEERRIHQESELHSYLSRLIAAERERELEECQRNHEGDEDDSHVRAQQACIEAKHDKYMADMDELFSQVDEKRKKRDIPDYLCGKISFELMREPCITPSGITYDRKDIEEHLQRVGHFDPVTRSPLTQEQLIPNLAMKEVIDAFISENGWVEDY
# B3: His6-Hsp90β (full-length) (natural protein)
# chain: not shown
# Legend:
# [1] = target: B3; test: pull-down
# [2] = target: His6-Hsp70 (full-length, wild type) (UniProt P0DMV8 1-641); test: ITC
# [3] = target: B2; test: ITC
# [4] = target: B2; test: SEC
# His6-Hsp70 (full-length, wild type), sequence (P0DMV8 whole entry): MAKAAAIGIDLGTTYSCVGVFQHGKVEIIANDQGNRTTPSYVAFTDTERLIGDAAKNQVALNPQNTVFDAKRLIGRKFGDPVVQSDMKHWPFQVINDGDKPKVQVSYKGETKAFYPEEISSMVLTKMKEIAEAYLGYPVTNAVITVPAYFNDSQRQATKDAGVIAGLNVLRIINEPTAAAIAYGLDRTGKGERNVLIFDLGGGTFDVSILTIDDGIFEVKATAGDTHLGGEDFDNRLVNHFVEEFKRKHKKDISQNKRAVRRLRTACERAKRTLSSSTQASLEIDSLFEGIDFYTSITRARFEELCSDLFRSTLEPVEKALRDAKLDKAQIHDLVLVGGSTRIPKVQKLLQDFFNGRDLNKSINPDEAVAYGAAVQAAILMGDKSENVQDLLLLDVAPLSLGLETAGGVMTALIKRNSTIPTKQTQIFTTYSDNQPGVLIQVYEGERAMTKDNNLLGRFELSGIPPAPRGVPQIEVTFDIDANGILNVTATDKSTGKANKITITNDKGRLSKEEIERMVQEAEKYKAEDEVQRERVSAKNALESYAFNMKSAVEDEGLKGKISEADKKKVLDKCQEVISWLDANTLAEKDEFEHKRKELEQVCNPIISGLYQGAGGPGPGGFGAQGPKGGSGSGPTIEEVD
binder,measurement,setting,value
B1,binding result,[1],binds
B2,Kd,[2],~1000 nM
"GGGAPPSGGASSGPTIEEVD-OH [Hsp70 C-terminal peptide (GGGAPPSGGASSGPTIEEVD-COO-), ITC]",stoichiometry N,[3],~0.8 C-terminal Hsp70 peptide per CHIP monomer
"GSSAAWTEEMPPLEGDDDTSRMEEVD-OH [Hsp90 C-terminal peptide ([residues removed]-COO-), ITC]",stoichiometry N,[3],~0.9 Hsp90 C-terminal peptide per CHIP monomer
B3,stoichiometry N,[4],~2.1 Hsp90 monomers per CHIP monomer
